# Results as given in patent US7211422B2, “Polypeptide having α-isomaltosylglucosaccharide synthase activity” (Kabushiki Kaisha Hayashibara Seibutsu Kagaku Kenkyujo, priority 2001, dated 2007).
# What was measured:
# [1] = Test on reducing-power formation; format: biochemical; conditions: 1% (w/v) maltotetraose, 0.25 unit/g substrate, 35° C., pH 6.0 (pH 8.4 for A19)
# Procedure: The following test was carried out to study whether the polypeptide having α-isomaltosylglucosaccharide-forming enzyme activity had the ability of forming reducing-power or not. To a 1% (w/v) aqueous solution of maltotetraose as a substrate was added 0.25 unit/g substrate, d.s.b., of either of purified polypeptide specimen of α-isomaltosylglucosaccharide-forming enzyme from Bacillus globisporus C11 obtained by the method in Experiment 1-3, Bacillus globisporus N75 obtained by the method in Experiment2-3, or Arthrobacter globiformis A19 obtained by the method in Experiment 3-3, and incubated at 35° C. and at pH 6.0, except that pH 8.4 was used for the enzyme from Arthrobacter globiformis A19. During the reaction, a portion of each reaction mixture was sampled at prescribed time intervals and measured for reducing power after keeping at 100° C. for 10 minutes to stop the enzymatic reaction. Before and after the enzymatic reaction, the reducing sugar content and total sugar content were respectively quantified by the Somogyi-Nelson method and anthrone-sulfuric acid method. The percentage of forming reducing power was calculated by the following equation: Percentage of forming reducing power (%)=(AR/AT−BR/BT)×100 Equation: • AR: Reducing sugar content after enzymatic reaction. • AT: Total sugar content after enzymatic reaction. • BR: Reducing sugar content before enzymatic reaction. • BT: Total sugar content before enzymatic reaction.
# [2] = Isoelectric point by isoelectrophoresis (2% ampholine gel); format: physicochemical; conditions: gel containing 2% (w/v) ampholine
# From the text: Purified specimens of the polypeptide having α-isomaltosylglucosaccharide-forming enzyme activity from Bacillus globisporus C11 obtained by the method in Experiment 1-3, Bacillus globisporus N75 obtained by the method in Experiment 2–3, and Arthrobacter globiformis A19 obtained by the method in Experiment 3-3 were subjected to isoelectrophoresis using a gel containing 2% (w/v) ampholine commercialized by Amersham Biosciences K. K., Tokyo, Japan (old name, Amersham Pharmacia Biotech), and then measured pHs of protein bands and gel to determine their isoelectric points.
# [3] = Thermal stability and pH stability (residual enzyme activity); format: physicochemical; conditions: 20 mM Glycine-NaOH buffer pH 8.0, 60 minutes
# Procedure: The thermal stability of the polypeptide having α-isomaltosylglucosaccharide-forming enzyme activity was determined by incubating the testing polypeptide solution in 20 mM acetate buffer, pH6.0 (in the case of the polypeptide from a strain A19, 20 m M Glycine-NaOH buffer, pH 8.0) at prescribed temperatures for 60 minutes in the presence or absence of 1 mM Ca^2+, cooling with water the resulting polypeptide solutions, and assaying the residual enzyme activity of each solution. The pH stability of the polypeptide having α-isomaltosylglucosaccharide-forming enzyme activity was determined by keeping the testing polypeptide solutions in 50 mM buffer having prescribed pHs at 4° C. for 24 hours, adjusting the pH of each solution to 6.0 (in the case of the polypeptide from a strain A19, pH 8.0), and assaying the residual enzyme activity of each solution. […] The thermal stability of the polypeptide having α-isomaltosylglucosaccharide-forming enzyme activity from a strain C11 was up to about 40° C. (in the absence of Ca^2+) and about 45° C. (in the presence of Ca^2+), and pH stability of about 5.0 to about 10.0. The thermal stability of the polypeptide having α-isomaltosylglucosaccharide-forming enzyme activity from a strain N75 was up to about 45° C. (in the absence of Ca^2+) and about 50° C. (in the presence of Ca^2+), and pH stability of about 5.0 to about 9.0. The thermal stability of the polypeptide having α-isomaltosylglucosaccharide-forming enzyme activity from a strain A19 was up to about 55° C. (in the absence of Ca^2+) and about 60° C. (in the presence of Ca^2+), and pH stability of about 5.0 to about 9.0.
# [4] = Effect of temperature and pH on α-isomaltosylglucosaccharide-forming enzyme activity; format: biochemical; conditions: for Optimum temperature: pH 8.4 for 60 minutes
# Procedure: The two types of enzymatic activities described above were measured as following. The activity of α-isomaltosylglucosaccharide-forming enzyme was measured by the following assay: A substrate solution was prepared by dissolving maltotriose in 100 mM acetate buffer (pH 6.0) to give a concentration of 2% (w/v). A reaction mixture was prepared by mixing 0.5 ml of the substrate solution and 0.5 ml of an enzyme solution, and incubated at 35° C. for 60 minutes. After stopping the reaction by boiling for 10 minutes, the amount of maltose formed in the reaction mixture was determined by high-performance liquid chromatography (HPLC). One unit of α-isomaltosylglucosaccharide-forming activity was defined as the amount of the enzyme that forms one μmole of maltose per minute under the above conditions. HPLC was carried out using “SHODEX KS-801 column”, Showa Denko K. K., Tokyo, Japan, at a column temperature of 60° C. and a flow rate of 0.5 ml/minutes of water, and using “RI-8012”, a differential refractometer commercialized by Tosoh Corporation, Tokyo, Japan.
# The effect of temperature and pH on the α-isomaltosylglucosaccharide-forming enzyme activity was examined in accordance with the assay for the α-isomaltosylglucosaccharide-forming enzyme activity under various temperature and pH conditions. The effect of temperature was conducted in the presence or absence of 1 mM Ca^2+. […] The optimum temperature of the polypeptide having α-isomaltosylglucosaccharide-forming enzyme activity from a strain C11 was about 45° C. (in the absence of Ca^2+) and about 50° C. (in the presence of Ca^2+) when incubated at pH 6.0 for 60 minutes, and the optimum pH was about 6.0 when incubated at 35° C. for 60 minutes. The optimum temperature of the polypeptide having α-isomaltosylglucosaccharide-forming enzyme activity from a strain N75 was about 50° C. (in the absence of Ca^2+) and about 55° C. (in the presence of Ca^2+) when incubated at pH 6.0 for 60 minutes, and the optimum pH was about 6.0 when incubated at 35° C. for 60 minutes. The optimum temperature of the polypeptide having α-isomaltosylglucosaccharide-forming enzyme activity from a strain A19 was about 60° C. (in the absence of Ca^2+) and about 65° C. (in the presence of Ca^2+) when incubated at pH 8.4 for 60 min, and the optimum pH was about 8.4 when incubated at 35° C. for 60 minutes.
molecule,measurement,setting,value
"Enzyme of Strain A19: purified polypeptide having α-isomaltosylglucosaccharide-forming enzyme activity from Arthrobacter globiformis A19 (Experiment 3-3); contains SEQ ID NO: 3 (protein, Arthrobacter globiformis A19) APLGVQRAQFQSGSSYLVVEVLDDDLVHFELAGGGTAPGTGSPLFTTPQVAKHDYAGPDVFTQTGSVLQTAAMRIEVDPADLCVTATDITRTPNLVLHEACPADLGQAWKGLNITRSAMENAYGLGQQFFTGGSADGDWVGRTRTPGGTYGNAMVFDPENGPVGNTQIPVLFAVGDDNANYGLFVDQLYKQEWNLTGDPWTVRMWGDQVRWYLMSGDDLPDLRHDYMELTGTPPVPPKKAFGLWVSEFGYDNWSEVDNTIAGLRSADFPVDGAMLDVQWFGGVTADSDDTRMGTLDWDTSRFPDPAGKIADLAEDGVGIIPIEESYVGRNLPEHARMAADGYLVRSGCATCPPVYLTGNPWWGKGGMIDWTQPEAGAVWHDEQRQHLVDEGVLGHWLDLGEPEMYDPNDWTAGVIPGKHAHADYHNAYNLLWAQSIADGYADNGVQKRPFMLTRAAAAGIQRHGAGMWSADIGSTMKALGSQQNAQMHMSMSGIDYYGSDIGGFRREMADGDVNELYTQWFADSAWFDTPLRPHTDNLCNCLETSPDSIGDVASNRENLVRRYELAPYYYSLAHRAHQFGEPLAPPLVYYYQNDDHVREMGHQKMLGRDLLIAIVAGEGERERDVYLPAGEWIDIHTNERIQSTGQWIDNVPLWRDGVFTLPAYARAGAIIPKAFVDASTKDITGKREDAAVRNELIATVYADDVASDFTLYEDDGATTAYADGAVRTTQISQSLTNGVATVTVGAASGTYSGAPSTRPTVVELVTDGTQASTVSLGSVPLTEHANKAAFDAASSGWYNAGGGLVVAKAASSSVNTAKTFSFTLGEESVWATFSCENATTTFGQSVYVVGNVPQLGNWSPADAVKLEPSAYPTWTGVVRNLPPSSTVEWKCIKRQEAGLPNTADAWEPGGNNILSTPPSGSAGITTGAF",Percentage of forming reducing power,[1]; reaction time 0 hour,0.0%
same,Percentage of forming reducing power,[1]; reaction time 1 hour,0.0%
same,Percentage of forming reducing power,[1]; reaction time 2 hours,0.1%
same,Percentage of forming reducing power,[1]; reaction time 4 hours,0.0%
same,Percentage of forming reducing power,[1]; reaction time 8 hours,0.1%
same,Isoelectric point,[2],about 4.3±0.5
same,Thermal stability,[3]; in the absence of Ca2+,up to 55 °C
same,Thermal stability,[3]; in the presence of 1 mM Ca2+,≤ 60 °C
same,Optimum temperature,[4]; in the absence of Ca2+,about 60 °C
same,Optimum temperature,[4]; in the presence of 1 mM Ca2+,about 65 °C
same,Optimum pH,[4]; incubated at 35° C. for 60 minutes,about 8.4
